In paper doi:10.1101/2025.08.16.670655, “A Phosphorelay Circuit Drives Extracellular Alkalinization in Plant Receptor Kinase Signaling” (bioRxiv, 2025):

Molecular target: T1, His-BIK1 (Arabidopsis thaliana, UniProt O48814 1-395)
T1 construct: BIK1, Arabidopsis; CDS cloned into pET28a, 6xHis fusion; source: E. coli BL21 (DE3) Rosetta pLysS, purified (HisPur cobalt resin); not shown: His6, N-terminal, kept
T1 sequence (looked up): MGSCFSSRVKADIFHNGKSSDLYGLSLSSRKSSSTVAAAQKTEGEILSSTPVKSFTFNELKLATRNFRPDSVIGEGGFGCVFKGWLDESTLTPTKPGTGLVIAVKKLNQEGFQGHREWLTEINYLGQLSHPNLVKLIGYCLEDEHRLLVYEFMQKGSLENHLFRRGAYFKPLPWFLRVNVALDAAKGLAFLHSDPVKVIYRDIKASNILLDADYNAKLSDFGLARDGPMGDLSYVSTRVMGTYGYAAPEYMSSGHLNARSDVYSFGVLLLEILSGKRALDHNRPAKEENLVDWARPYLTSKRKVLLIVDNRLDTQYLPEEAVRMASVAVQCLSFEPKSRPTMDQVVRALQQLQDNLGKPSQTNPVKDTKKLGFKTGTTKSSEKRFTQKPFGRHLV
Experiment: pull-down; MBP pulldown of His-BIK1 by His-MBP fusion proteins; 25 mM Tris-HCl pH 7.4, 100 mM NaCl, 0.2 % Triton X-100, 1 mM DTT, 4 °C, 1-2 h
Details: both partners purified

binding result: binds
B1: His-MBP-GRF2 (natural protein, Arabidopsis thaliana, UniProt Q01525 1-259, looked up)
chain: MASGREEFVYMAKLAEQAERYEEMVEFMEKVSAAVDGDELTVEERNLLSVAYKNVIGARRASWRIISSIEQKEESRGNDDHVTAIREYRSKIETELSGICDGILKLLDSRLIPAAASGDSKVFYLKMKGDYHRYLAEFKTGQERKDAAEHTLAAYKSAQDIANAELAPTHPIRLGLALNFSVFYYEILNSPDRACNLAKQAFDEAIAELDTLGEESYKDSTLIMQLLRDNLTLWTSDMQDDAADEIKEAAAPKPTEEQQ
notes: GRF2, Arabidopsis; CDS cloned into pOPINM, 6xHis-MBP fusion; source: E. coli BL21 (DE3) Rosetta pLysS, purified (HisPur cobalt resin); not shown: His6, N-terminal, kept; MBP, N-terminal, kept
